The values below are quoted from earlier work in article PMC10766771.

The data set has as its system His154. The experiment in a line: other (pH dependence of the redox potential, electrochemistry). The following applies: oxidized [2Fe-2S] cluster, isolated fragment.

On to “Rieske [2Fe-2S] iron-sulfur protein (cytochrome bc1-type), isolated soluble fragment (Thermus thermophilus)”, for which the pKa is reported as 7.8.

By pKa is commonly meant the negative logarithm of the acid dissociation constant.
